Results: PMC4715562 (Proteins, 2015)

Biological target: the molecule itself
Test: crystal structure

B1: Xrcc4-MyH7-1590-1657 (domain or fragment, human)
chain: GGSGERKISRIHLVSEPSITHFLQVSWEKTLESGFVITLTDGHSAWTGTVSESEISQEADDMAMEKGKYVGELRKALLSGAGPADVYTFNFSKESCYFFFEKNLKDVSFRLGSFNLEKVENPAEVIRELICYCLDTTAENQAKNEHHLRVVDSLQTSLDAETRSRNEALRVKKKMEGDLNEMEIQLSHANRMAAEAQKQVKSLQSLLKDTQIQL
modifications: reductively methylated
Q: Does B1 bind?
A: binds
